Measured values: the Immune Epitope Database (IEDB)

Assays:
HLA-B*27:05 = assay: IEDB peptide-MHC binding, purified MHC/direct/fluorescence; filed as Kd, often an IC50 or EC50 that approximates it; ≥ and ≤ were set here for values at or beyond the usual limits of such assays; conditions: source organism: Mammarenavirus machupoense
HLA-B*39:01 = assay: as above; conditions: source organism: Mammarenavirus machupoense
HLA-B*07:02 = assay: as above; conditions: source organism: Mammarenavirus machupoense
HLA-B*15:01 = assay: as above; conditions: source organism: Mammarenavirus machupoense
HLA-B*58:01 [1] = assay: as above; conditions: source organism: Mammarenavirus machupoense
HLA-A*31:01 = assay: as above; conditions: source organism: Mammarenavirus machupoense
HLA-A*02:01 = assay: as above; conditions: source organism: Mammarenavirus machupoense
HLA-A*11:01 = assay: as above; conditions: source organism: Mammarenavirus machupoense
HLA-B*44:02 = assay: as above; conditions: source organism: Mammarenavirus machupoense
HLA-A*03:01 = assay: as above; conditions: source organism: Mammarenavirus machupoense
HLA-A*01:01 = assay: as above; conditions: source organism: Mammarenavirus machupoense
HLA-B*57:01 [2] = assay: as above; conditions: source organism: Mammarenavirus machupoense
HLA-B*46:01 = assay: as above; conditions: source organism: Mammarenavirus machupoense
HLA-B*48:01 = assay: as above; conditions: source organism: Mammarenavirus machupoense
HLA-B*58:01 [3] = assay: IEDB peptide-MHC binding, purified MHC/competitive/radioactivity; filed as Kd, often an IC50 or EC50 that approximates it; ≥ and ≤ were set here for values at or beyond the usual limits of such assays; conditions: source organism: Dengue virus 1 Singapore/S275/1990
HLA-B*57:01 [4] = assay: as above

Measured: Kd

FHEFLSSKL
≥ 20 µM: HLA-B*27:05 | HLA-B*07:02 | HLA-B*15:01 | HLA-B*58:01 [1] | HLA-A*31:01 | HLA-A*02:01 | HLA-A*11:01 | HLA-B*44:02 | HLA-A*03:01 | HLA-A*01:01 | HLA-B*57:01 [2] | HLA-B*46:01 | HLA-B*48:01
0.0731 µM: HLA-B*39:01

GASHNILVEV
9.64 µM: HLA-B*58:01 [3]
0.785 µM: HLA-B*57:01 [4]; source organism: Dengue virus 1 Singapore/S275/1990

GGWRLSAQW
0.179 µM: HLA-B*57:01 [4]; source organism: Dengue virus 3 Martinique/1243/1999
